Experimental data as given in patent US10287362.
Positions count from the first letter of the chain named. Like-named read-outs stand apart in the source and are kept apart here.

T1: CD73 K180A (human, UniProt P21589)
T1 chain: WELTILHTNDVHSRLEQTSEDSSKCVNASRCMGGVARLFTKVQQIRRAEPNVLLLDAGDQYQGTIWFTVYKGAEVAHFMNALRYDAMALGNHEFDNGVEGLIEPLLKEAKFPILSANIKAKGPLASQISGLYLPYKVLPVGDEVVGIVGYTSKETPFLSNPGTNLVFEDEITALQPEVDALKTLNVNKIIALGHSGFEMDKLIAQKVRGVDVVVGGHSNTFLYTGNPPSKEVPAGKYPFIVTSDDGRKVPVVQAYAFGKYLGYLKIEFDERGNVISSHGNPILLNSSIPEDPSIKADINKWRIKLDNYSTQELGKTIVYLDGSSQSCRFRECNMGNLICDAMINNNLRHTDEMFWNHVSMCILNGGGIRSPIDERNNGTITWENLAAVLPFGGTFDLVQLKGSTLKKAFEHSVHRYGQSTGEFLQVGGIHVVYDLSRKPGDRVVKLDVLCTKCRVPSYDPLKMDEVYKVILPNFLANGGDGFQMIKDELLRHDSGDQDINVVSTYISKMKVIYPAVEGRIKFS

T2: CD73 N185G (human, UniProt P21589)
T2 chain: T1 chain with A180K, N185G

T3: human CD73 ECD (human, UniProt P21589)
T3 chain: T1 chain with A180K

T4: CD73 V144K+N185G (human, UniProt P21589)
T4 chain: T1 chain with V144K, A180K, N185G

T5: CD73 K180A+N185G (human, UniProt P21589)
T5 chain: T1 chain with N185G

T6: human CD73 on MDA-MB-231 cells (human, UniProt P21589)
T6 chain: T1 chain with A180K

T7: CD73 V144K (human, UniProt P21589)
T7 chain: T1 chain with V144K, A180K

T8: murine CD73 on 4T1 cells (mouse, UniProt Q61503)
T8 chain: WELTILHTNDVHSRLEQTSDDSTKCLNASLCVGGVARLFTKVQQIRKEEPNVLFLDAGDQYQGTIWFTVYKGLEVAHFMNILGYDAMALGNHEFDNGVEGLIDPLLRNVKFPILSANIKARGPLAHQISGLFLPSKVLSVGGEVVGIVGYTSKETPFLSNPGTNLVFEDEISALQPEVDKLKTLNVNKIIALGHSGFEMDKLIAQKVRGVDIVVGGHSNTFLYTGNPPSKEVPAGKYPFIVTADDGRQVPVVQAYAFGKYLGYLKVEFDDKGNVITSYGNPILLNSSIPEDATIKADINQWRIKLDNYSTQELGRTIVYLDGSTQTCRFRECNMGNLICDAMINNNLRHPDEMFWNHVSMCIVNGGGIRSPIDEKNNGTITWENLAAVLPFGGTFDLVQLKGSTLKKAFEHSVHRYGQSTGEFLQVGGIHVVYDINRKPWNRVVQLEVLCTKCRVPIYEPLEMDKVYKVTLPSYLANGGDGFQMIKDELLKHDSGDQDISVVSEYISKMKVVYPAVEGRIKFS

T9: murine CD73 ECD (mouse, UniProt Q61503)
T9 chain: T8 chain

T10: CD73 V144K+K180A (human, UniProt P21589)
T10 chain: T1 chain with V144K

B1: MEDI9447 (73combo3, clone 10.3) (antibody, V domains shown)
VH: EVQLLESGGGLVQPGGSLRLSCAASGFTFSSYAYSWVRQAPGKGLEWVSAISGSGGRTYYADSVKGRFTISRDNSKNTLYLQMNSLRAEDTAVYYCARLGYGRVDEWGRGTLVTVSS
VL: QSVLTQPPSASGTPGQRVTISCSGSLSNIGRNPVNWYQQLPGTAPKLLIYLDNLRLSGVPDRFSGSKSGTSASLAISGLQSEDEADYYCATWDDSHPGWTFGGGTKLTVL
B2: MEDI9447 Fab (antibody, V domains shown)
VH: B1 VH
VL: B1 VL

Assays:
CD73 K180A = target: T1, CD73 K180A; assay: SPR, bivalent
CD73 N185G = target: T2, CD73 N185G; assay: SPR, bivalent
human CD73 ECD [1] = target: T3, human CD73 ECD; assay: SPR, bivalent
human CD73 ECD [2] = target: T3, human CD73 ECD; assay: SPR
human CD73 ECD [3] = target: T3, human CD73 ECD; assay: SPR
CD73 V144K+N185G = target: T4, CD73 V144K+N185G; assay: SPR, bivalent
CD73 K180A+N185G = target: T5, CD73 K180A+N185G; assay: SPR, bivalent
[4] = target: T6, human CD73 on MDA-MB-231 cells; assay: FACS
CD73 V144K = target: T7, CD73 V144K; assay: SPR, bivalent
[5] = target: T6, human CD73 on MDA-MB-231 cells; assay: FACS
murine CD73 on 4T1 cells [6] = target: T8, murine CD73 on 4T1 cells; assay: FACS
murine CD73 ECD [7] = target: T9, murine CD73 ECD; assay: SPR
murine CD73 on 4T1 cells [8] = target: T8, murine CD73 on 4T1 cells; assay: FACS
murine CD73 ECD [9] = target: T9, murine CD73 ECD; assay: SPR
CD73 V144K+K180A = target: T10, CD73 V144K+K180A; assay: SPR, bivalent
human CD73 ECD [10] = target: T3, human CD73 ECD

Binder | Kd (CD73 K180A) [nM] | Kd (CD73 N185G) [nM] | Kd (human CD73 ECD [1]) [nM] | Kd (human CD73 ECD [2]) [nM] | Kd (human CD73 ECD [3]) [nM] | binding result (CD73 V144K+N185G) | binding result (CD73 K180A+N185G) | Kd [4] [nM] | Kd (CD73 V144K) [nM] | Kd [5] [nM] | Kd (murine CD73 on 4T1 cells [6]) [nM] | Kd (murine CD73 ECD [7]) [nM] | Kd (murine CD73 on 4T1 cells [8]) [nM] | Kd (murine CD73 ECD [9]) [nM] | Kd (CD73 V144K+K180A) [nM] | Kd (human CD73 ECD [10]) [nM]
B1 | 0.0435 | 0.0269 | 0.0042 | 0.0041 | 0.004 | no binding | no binding | 0.154 | 0.0814 | 0.154 | 0.113 | 0.001 | 0.113 | 0.0009 | 2.68 | 
B2 |  |  |  |  |  |  |  |  |  |  |  |  |  |  |  | 0.327
